Measured values: EP1644415B1 (Genetics Institute, LLC, dated 2010)
Each block holds one binder with its values, some of them ahead of it.

B1: human IL-22R extracellular domain-Fc fusion homodimer (Fc fusion)
chain: HAPEDPSDLLQHVKFQSSNFENILTWDSGPEGTPDTVYSIEYKTYGERDWVAKKGCQRITRKSCNLTVETGNLTELYYARVTAVSAGGRSATKMTDRFSSLQHTTLKPPDVTCISKVRSIQMIVHPTPTPIRAGDGHRLTLEDIFHDLFYHLELQVNRTYQMHLGGKQREYEFFGLTPDTEFLGTIMICVPTWAKESAPYMCRVKTLPDRTWTAGSGSGSG
notes: extracellular domain; Used as CHO conditioned medium, not purified; also called IL-22R-Fc; IL-22RECD-Fc; not shown: human IgG1 Fc
B2: human IL-22 with N terminal His/Flag tag (ligand)
chain: GSGHHHHHHGSGDYKDDDDKAPISSHCRLDKSNFQQPYITNRTFMLAKEASLADNNTDVRLIGEKLFHGVSMSERCYLMKQVLNFTLEEVLFPQSDRFQPYMQEVVPFLARLSNRLSTCHIEGDDLHIQRNVQKLKDTVKKLGESGEIKAIGELDLLFMSLRNACI
modifications: biotinylated with EZ-Link Sulfo-NHS-Biotin where used in ELISA (bio-IL-22); not biotinylated in Biacore and cell assays
notes: Made in CHO cells, extensively glycosylated; also called hIL-22; huIL-22
B3: human IL-22 binding protein-Fc fusion (Fc fusion)
chain: TQSTHESLKPQRVQFQSRNFHNILQWQPGRALTGNSSVYFVQYKIYGQRQWKNKEDCWGTQELSCDLTSETSDIQEPYYGRVRAASAGSYSEWSMTPRFTPWWETKIDPPVMNITQVNGSLLVILHAPNLPYRYQKEKNVSIEDYYELLYRVFIINNSLEKEQKVYEGAHRAVEIEALTPHSSYCVVAEIYQPMLDRRSQRSEERCVEIPAGSGSGSG
notes: Fc fusion homodimer, used as CHO conditioned medium; also called IL-22BP-Fc; hIL-22BP-Fc; not shown: human IgG1 Fc

Key:
[1] = biological target: B2; assay: ELISA, bio-IL-22 on streptavidin plates, IL-22R-Fc titrated (Figure 6B)
[2] = biological target: T1, human IL-22R-Fc/IL-10R2-Fc heterodimer (human, UniProt Q8N6P7 16-228; Q08334 20-220); assay: ELISA, 50 ng/ml total Fc of co-expressing CHO CM captured, bio-IL-22 5 ng/ml, no antibody (Figure 10C)
T1 construct: extracellular domain; Used as conditioned medium of CHO cells co-expressing both fusions; also called IL-22R/IL-10R2-Fc heterodimer; IL-22R-Fc/IL-10R2-Fc complex; not shown: human IgG1 Fc
T1 sequence 1: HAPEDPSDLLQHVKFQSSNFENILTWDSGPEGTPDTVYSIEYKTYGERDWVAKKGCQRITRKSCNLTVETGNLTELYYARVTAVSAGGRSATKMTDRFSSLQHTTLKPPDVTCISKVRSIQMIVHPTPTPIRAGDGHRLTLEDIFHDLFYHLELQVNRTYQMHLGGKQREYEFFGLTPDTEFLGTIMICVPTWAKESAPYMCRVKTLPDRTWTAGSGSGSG
T1 sequence 2: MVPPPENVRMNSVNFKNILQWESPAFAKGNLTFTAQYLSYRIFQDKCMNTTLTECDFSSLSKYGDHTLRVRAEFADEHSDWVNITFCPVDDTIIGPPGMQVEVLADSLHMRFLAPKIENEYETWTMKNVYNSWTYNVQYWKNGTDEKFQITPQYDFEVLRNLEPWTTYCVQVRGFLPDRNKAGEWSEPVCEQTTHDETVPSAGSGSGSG

[3] = biological target: B1; assay: ELISA, IL-22R-Fc captured on anti-human IgG, bio-IL-22 titrated (Figure 6A)
[4] = biological target: T1, human IL-22R-Fc/IL-10R2-Fc heterodimer; assay: ELISA, 50 ng/ml total Fc captured on anti-human IgG, bio-IL-22 titrated (Figure 8A)
[5] = biological target: B3; assay: Biacore, IL-22BP-Fc from conditioned medium captured by anti-human IgG, IL-22 injected, 1:1 model
[6] = biological target: B1; assay: Biacore, receptor-Fc from conditioned medium captured by anti-human IgG, IL-22 injected, 1:1 model
[7] = biological target: T1, human IL-22R-Fc/IL-10R2-Fc heterodimer; assay: as above
[8] = biological target: B2; assay: competition ELISA: IL-22BP-Fc pre-incubated with bio-IL-22 5 ng/ml, binding to captured IL-22R/IL-10R2-Fc heterodimer (Figure 11B)
[9] = biological target: B2; assay: competition ELISA: IL-22BP-Fc pre-incubated with bio-IL-22 30 ng/ml, binding to captured IL-22R-Fc (Figure 11A)
[10] = biological target: B1; assay: ELISA, IL-10R2-Fc added to captured IL-22R-Fc before bio-IL-22 (Figure 9A)

Binder: B1
- EC50 [1]: 0.006 µg/mL

Binder: B2
- ELISA signal (absorbance at 450 nm) [2]: 2.5
- EC50 [3]: 0.02 µg/mL
- fold less bio-IL-22 needed for a comparable signal than with immobilized IL-22R-Fc homodimer [4]: 8 fold
- Kd [5]: 3.37 nM
- Kd [6]: 41 nM
- Kd [7]: 1.48 nM

Binder: B3
- IC50 [8]: 2 nM
- IC50 [9]: 4 nM

- binding result [10]: no binding
B4: human IL-10R2 extracellular domain-Fc fusion homodimer (Fc fusion)
chain: MVPPPENVRMNSVNFKNILQWESPAFAKGNLTFTAQYLSYRIFQDKCMNTTLTECDFSSLSKYGDHTLRVRAEFADEHSDWVNITFCPVDDTIIGPPGMQVEVLADSLHMRFLAPKIENEYETWTMKNVYNSWTYNVQYWKNGTDEKFQITPQYDFEVLRNLEPWTTYCVQVRGFLPDRNKAGEWSEPVCEQTTHDETVPSAGSGSGSG
notes: extracellular domain; Used as CHO conditioned medium, not purified; also called IL-10R2-Fc; IL-10R2ECD-Fc; not shown: human IgG1 Fc
